Experimental data from patent publication US20240018252A1.

How the values were obtained:
[1] = target: human BCMA (B-Cell Maturation Antigen) on myeloma cells (human) (UniProt Q02223); test: cell-based or functional assay
[2] = target: human CD3 (huCD3ed) (human) (UniProt P07766); test: Biacore SPR, bispecific hIgG2dA format, 37 C; CD3 antigen not given
Sequence of human CD3 (huCD3ed) (human) (P07766 23-126, chain 1 of 2): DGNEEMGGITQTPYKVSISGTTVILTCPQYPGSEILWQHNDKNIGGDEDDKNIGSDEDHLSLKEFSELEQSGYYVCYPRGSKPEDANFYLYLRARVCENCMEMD
Sequence of human CD3 (huCD3ed) (human) (P04234 22-105, chain 2 of 2, further chain): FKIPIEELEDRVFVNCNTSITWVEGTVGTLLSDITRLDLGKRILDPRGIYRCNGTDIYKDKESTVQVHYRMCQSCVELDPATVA

Sequence of human BCMA (B-Cell Maturation Antigen) on myeloma cells (human) (Q02223 whole entry): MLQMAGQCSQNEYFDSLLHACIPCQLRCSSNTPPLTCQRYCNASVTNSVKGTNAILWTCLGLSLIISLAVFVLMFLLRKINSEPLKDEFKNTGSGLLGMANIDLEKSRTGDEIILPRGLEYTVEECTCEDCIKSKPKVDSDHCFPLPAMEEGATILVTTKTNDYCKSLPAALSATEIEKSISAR

Binder	Kd [2] [nM]	koff [2] [s⁻¹]	kon [2] [M⁻¹ s⁻¹]	t½ [2] [s]	EC50 (nM), killing of primary myeloma cells in bone marrow mononuclear cells of patient MM00146 (flow cytometry, day 5) [1] [nM]	EC50, T-cell mediated cytotoxicity (LDH release, 20 h) on KMS12BM (BCMA+) cells [1] [nM]	EC50, T-cell mediated cytotoxicity (LDH release, 20 h) on KMS12PE (BCMA+++) cells [1] [nM]	EC50, T-cell mediated cytotoxicity (LDH release, 20 h) on MOLP8 (MOLP8+) cells [1] [nM]
P5A2/h2B4 anti-BCMA/CD3 bispecific (bispecific antibody, V domains shown) VH 1: EVQLLESGGGLVQPGGSLRLSCAASGFTFSSYAMNWVRQAPGKGLEWVSAISDSGGSTYYADSVKGRFTISRDNSKNTLYLQMNSLRAEDTAVYYCARYWPMDIWGQGTLVTVSS VL 1: EIVLTQSPGTLSLSPGERATLSCRASQSVSSSYLAWYQQKPGQAPRLLMYDASIRATGIPDRFSGSGSGTDFTLTISRLEPEDFAVYYCQQYGSWPLTFGQGTKVEIK VH 2: EVQLVESGGGLVQPGGSLRLSCAASGFTFSDYYMTWVRQAPGKGLEWVAFIRNRARGYTSDHNASVKGRFTISRDNAKNSLYLQMNSLRAEDTAVYYCARDRPSYYVLDYWGQGTTVTVSS VL 2: DIVMTQSPDSLAVSLGERATINCTSSQSLFNVRSRKNYLAWYQQKPGQPPKLLISWASTRESGVPDRFSGSGSGTDFTLTISSLQAEDVAVYYCKQSYDLFTFGSGTKLEIK					0.946	1.51	0.371	5.23
h2B4-1d_Ep (bispecific antibody, part only; not given: anti-EpCam arm, constant regions, V domains shown, not shown: another chain or arm of the molecule; a dimerising Fc or GST; small tags and cut ends) VH: EVQLVESGGGLVQPGGSLRLSCAASGFTFSDYYMTWVRQAPGKGLEWVAFIRNRARGYTSDHNASVKGRFTISRDNAKNSLYLQMNSLRAEDTAVYYCARDRPSYYVLDYWGQGTTVTVSS VL: DIVMTQSPDSLAVSLGERATINCTSSQSLFNVRSRKNYLAWYQQKPGQPPKLLISWASTRESGVPDRFSGSGSGTDFTLTISSLQAEDVAVYYCKQSYDLFTFGSGTKLEIK	40.4	0.0237	586000	29.4				
h2B4-TK_Ep (bispecific antibody, part only; not given: anti-EpCam arm, constant regions, V domains shown, not shown: another chain or arm of the molecule; a dimerising Fc or GST; small tags and cut ends) VH: EVQLVESGGGLVQPGGSLRLSCAASGFTFSDYYMTWVRQAPGKGLEWVAFIRNRARGYTSDHNASVKGRFTISRDNAKNSLYLQMNSLRAEDTAVYYCARDRPSYYVLDYWGQGTTVTVSS VL: DIVMTQSPDSLAVSLGERATINCKSSQSLFNVRSRKNYLAWYQQKPGQPPKLLISWASTRESGVPDRFSGSGSGTDFTLTISSLQAEDVAVYYCKQSYDLFTFGSGTKLEIK	31	0.0213	687000	32.4				
P5C1/h2B4 anti-BCMA/CD3 bispecific (bispecific antibody, V domains shown) VH 1: EVQLLESGGGLVQPGGSLRLSCAASGFTFSSYPMSWVRQAPGKGLEWVSAIGGSGGSTYYADSVKGRFTISRDNSKNTLYLQMNSLRAEDTAVYYCARYWPMDSWGQGTLVTVSS VL 1: EIVLTQSPGTLSLSPGERATLSCRASQSVSSTYLAWYQQKPGQAPRLLIYDASSRAPGIPDRFSGSGSGTDFTLTISRLEPEDFAVYYCQQYSTSPLTFGQGTKVEIK VH 2: EVQLVESGGGLVQPGGSLRLSCAASGFTFSDYYMTWVRQAPGKGLEWVAFIRNRARGYTSDHNASVKGRFTISRDNAKNSLYLQMNSLRAEDTAVYYCARDRPSYYVLDYWGQGTTVTVSS VL 2: DIVMTQSPDSLAVSLGERATINCTSSQSLFNVRSRKNYLAWYQQKPGQPPKLLISWASTRESGVPDRFSGSGSGTDFTLTISSLQAEDVAVYYCKQSYDLFTFGSGTKLEIK						4.12	0.581	
A02_Rd4_0.6nM_C01/h2B4 anti-BCMA/CD3 bispecific (bispecific antibody, V domains shown) VH 1: EVQLLESGGGLVQPGGSLRLSCAASGFTFSSYAMNWVRQAPGKGLEWVSAILSSGGSTYYADSVKGRFTISRDNSKNTLYLQMNSLRAEDTAVYYCARYWPMDIWGQGTLVTVSS VL 1: EIVLTQSPGTLSLSPGERATLSCRGGQSVSSSYLAWYQQKPGQAPRLLMYDASIRATGIPDRFSGSGSGTDFTLTISRLEPEDFAVYYCQQYQSWPLTFGQGTKVEIK VH 2: EVQLVESGGGLVQPGGSLRLSCAASGFTFSDYYMTWVRQAPGKGLEWVAFIRNRARGYTSDHNASVKGRFTISRDNAKNSLYLQMNSLRAEDTAVYYCARDRPSYYVLDYWGQGTTVTVSS VL 2: DIVMTQSPDSLAVSLGERATINCTSSQSLFNVRSRKNYLAWYQQKPGQPPKLLISWASTRESGVPDRFSGSGSGTDFTLTISSLQAEDVAVYYCKQSYDLFTFGSGTKLEIK					0.064	0.078	0.073	0.55
C01_Rd4_6nM_C12/h2B4 anti-BCMA/CD3 bispecific (bispecific antibody, V domains shown) VH 1: EVQLLESGGGLVQPGGSLRLSCAASGFTFSSYPMSWVRQAPGKGLEWVSAIGGSGGWSYYADSVKGRFTISRDNSKNTLYLQMNSLRAEDTAVYYCARYWPMDSWGQGTLVTVSS VL 1: EIVLTQSPGTLSLSPGERATLSCWLSQSVSSTYLAWYQQKPGQAPRLLIYDASSRAPGIPDRFSGSGSGTDFTLTISRLEPEDFAVYYCQQYSEWPLTFGQGTKVEIK VH 2: EVQLVESGGGLVQPGGSLRLSCAASGFTFSDYYMTWVRQAPGKGLEWVAFIRNRARGYTSDHNASVKGRFTISRDNAKNSLYLQMNSLRAEDTAVYYCARDRPSYYVLDYWGQGTTVTVSS VL 2: DIVMTQSPDSLAVSLGERATINCTSSQSLFNVRSRKNYLAWYQQKPGQPPKLLISWASTRESGVPDRFSGSGSGTDFTLTISSLQAEDVAVYYCKQSYDLFTFGSGTKLEIK						0.415	0.189	0.85
A02_Rd4_6nM_C16/h2B4 anti-BCMA/CD3 bispecific (bispecific antibody, V domains shown) VH 1: EVQLLESGGGLVQPGGSLRLSCAASGFTFSSYAMNWVRQAPGKGLEWVSAISDFGGSTYYADSVKGRFTISRDNSKNTLYLQMNSLRAEDTAVYYCARYWPMDIWGQGTLVTVSS VL 1: EIVLTQSPGTLSLSPGERATLSCRASQSVSDLYLAWYQQKPGQAPRLLMYDASIRATGIPDRFSGSGSGTDFTLTISRLEPEDFAVYYCQQYQTWPLTFGQGTKVEIK VH 2: EVQLVESGGGLVQPGGSLRLSCAASGFTFSDYYMTWVRQAPGKGLEWVAFIRNRARGYTSDHNASVKGRFTISRDNAKNSLYLQMNSLRAEDTAVYYCARDRPSYYVLDYWGQGTTVTVSS VL 2: DIVMTQSPDSLAVSLGERATINCTSSQSLFNVRSRKNYLAWYQQKPGQPPKLLISWASTRESGVPDRFSGSGSGTDFTLTISSLQAEDVAVYYCKQSYDLFTFGSGTKLEIK					0.029	0.052	0.186	0.315

The next lines start with results.

Kd [2] [nM]	koff [2] [s⁻¹]	kon [2] [M⁻¹ s⁻¹]	t½ [2] [s]	Binder	EC50 (nM), killing of primary myeloma cells in bone marrow mononuclear cells of patient MM00146 (flow cytometry, day 5) [1] [nM]	EC50, T-cell mediated cytotoxicity (LDH release, 20 h) on KMS12BM (BCMA+) cells [1] [nM]	EC50, T-cell mediated cytotoxicity (LDH release, 20 h) on KMS12PE (BCMA+++) cells [1] [nM]	EC50, T-cell mediated cytotoxicity (LDH release, 20 h) on MOLP8 (MOLP8+) cells [1] [nM]
31.2	0.0235	754000	29.4	h2B4-hnpsTK_Ep (bispecific antibody, part only; not given: anti-EpCam arm, constant regions, V domains shown, not shown: another chain or arm of the molecule; a dimerising Fc or GST; small tags and cut ends) VH: EVQLVESGGGLVQPGGSLRLSCAASGFTFSDYYMTWVRQAPGKGLEWVAFIRNRARGYTSDHNPSVKGRFTISRDNAKNSLYLQMNSLRAEDTAVYYCARDRPSYYVLDYWGQGTTVTVSS VL: DIVMTQSPDSLAVSLGERATINCKSSQSLFNVRSRKNYLAWYQQKPGQPPKLLISWASTRESGVPDRFSGSGSGTDFTLTISSLQAEDVAVYYCKQSYDLFTFGSGTKLEIK				
54.4	0.0258	474000	27	h2B4-yaesTK_Ep (bispecific antibody, part only; not given: anti-EpCam arm, constant regions, V domains shown, not shown: another chain or arm of the molecule; a dimerising Fc or GST; small tags and cut ends) VH: EVQLVESGGGLVQPGGSLRLSCAASGFTFSDYYMTWVRQAPGKGLEWVAFIRNRARGYTSDYAESVKGRFTISRDNAKNSLYLQMNSLRAEDTAVYYCARDRPSYYVLDYWGQGTTVTVSS VL: DIVMTQSPDSLAVSLGERATINCKSSQSLFNVRSRKNYLAWYQQKPGQPPKLLISWASTRESGVPDRFSGSGSGTDFTLTISSLQAEDVAVYYCKQSYDLFTFGSGTKLEIK				
45	0.0581	1.29e+06	12	h25A8-B5_Ep (bispecific antibody, part only; not given: anti-EpCam arm, constant regions, V domains shown, not shown: another chain or arm of the molecule; a dimerising Fc or GST; small tags and cut ends) VH: EVQLVESGGGLVKPGGSLRLSCAASGFTFSTYAMNWVRQAPGKGLEWVGRIRSKINNYATYYAESVKGRFTISRDDSKNTLYLQMNSLKTEDTAVYYCVRHETLRSGISWFASWGQGTLVTVSS VL: QAVVTQEPSLTVSPGGTVTLTCRSSTGAVTTSNYANWVQQKPGQAPRGLIGGTNTRAPGTPARFSGSLLGGKAALTLSGAQPEDEAEYYCVLWYNNYWVFGGGTKLTVL				
25.1	0.0301	1.2e+06	22.8	h25A8-C8_Ep (bispecific antibody, part only; not given: anti-EpCam arm, constant regions, V domains shown, not shown: another chain or arm of the molecule; a dimerising Fc or GST; small tags and cut ends) VH: EVQLVESGGGLVKPGGSLRLSCAASGFTFNTYAMNWVRQAPGKGLEWVGRIRSKINNYATYYAESVKGRFTISRDDSKNTLYLQMNSLKTEDTAVYYCVRHETLRSGISWFASWGQGTLVTVSS VL: QAVVTQEPSLTVSPGGTVTLTCRSSTGAVTTSNYANWVQQKPGQAPRGLIGGTNTRAPGTPARFSGSLLGGKAALTLSGAQPEDEAEYYCVLWYNNHWVFGGGTKLTVL				
18.7	0.0222	1.19e+06	31.2	h25A8-B8_Ep (bispecific antibody, part only; not given: anti-EpCam arm, constant regions, V domains shown, not shown: another chain or arm of the molecule; a dimerising Fc or GST; small tags and cut ends) VH: EVQLVESGGGLVKPGGSLRLSCAASGFTFSTYAMNWVRQAPGKGLEWVGRIRSKINNYATYYAESVKGRFTISRDDSKNTLYLQMNSLKTEDTAVYYCVRHETLRSGISWFASWGQGTLVTVSS VL: QAVVTQEPSLTVSPGGTVTLTCRSSTGAVTTSNYANWVQQKPGQAPRGLIGGTNTRAPGTPARFSGSLLGGKAALTLSGAQPEDEAEYYCVLWYNNHWVFGGGTKLTVL				
18.3	0.0219	1.2e+06	31.8	h25A8-B13_Ep (bispecific antibody, part only; not given: anti-EpCam arm, constant regions, V domains shown, not shown: another chain or arm of the molecule; a dimerising Fc or GST; small tags and cut ends) VH: EVQLVESGGGLVKPGGSLRLSCAASGFTFSTYAMNWVRQAPGKGLEWVGRIRSKINNYATYYAESVKGRFTISRDDSKNTLYLQMNSLKTEDTAVYYCVRHETLRSGISWFASWGQGTLVTVSS VL: QAVVTQEPSLTVSPGGTVTLTCRTSTGAVTTSNYANWVQQKPGQAPRGLIGGTNTRAPGTPARFSGSLLGGKAALTLSGAQPEDEAEYYCVLWYNNHWVFGGGTKLTVL				
21	0.0241	1.15e+06	28.8	h25A8-B12_Ep (bispecific antibody, part only; not given: anti-EpCam arm, constant regions, V domains shown, not shown: another chain or arm of the molecule; a dimerising Fc or GST; small tags and cut ends) VH: EVQLVESGGGLVKPGGSLRLSCAASGFTFSTYAMNWVRQAPGKGLEWVGRIRSKINNYATYYAESVKGRFTISRDDSKNTLYLQMNSLKTEDTAVYYCVRHETLRSGISWFASWGQGTLVTVSS VL: QAVVTQEPSLTVSPGGTVTLTCRASTGAVTTSNYANWVQQKPGQAPRGLIGGTNTRAPGTPARFSGSLLGGKAALTLSGAQPEDEAEYYCVLWYNNHWVFGGGTKLTVL				
